Here are results for 2 molecules from patent US20230416313A1 (NAVIGO PROTEINS, published 2023).

For this assay, the target named is T1, recombinant human complement factor H (CFH), isolated from moss (human, UniProt P08603 19-1231).
T1 construct: also called moss-FH; recombinant CFH
The experiment in a line: affinity chromatography, ligand on Praesto Epoxy 85, CFH supernatant bound in PBS pH 7.3, eluted at pH 3.5. The protocol: Coupling parameter. Proteins were purified to homogeneity and coupled to resin for AIC experiments. […] Variants were successfully coupled to epoxy-activated Praesto 85 resin.
AIC experiments. Capturing and Elution. For initial column performance tests, resins were packed into superformance 50-5 column housing. Phosphate buffered saline pH 7.3 (PBS) was used to equilibrate the column, followed by applying of 10 mL of recombinant CFH expression supernatant (titer: 0.47 mg/mL) at 6 min residence time. Resin was then washed with PBS for 15 column volumes. Elution was performed at pH 3.5 using 100 mM Citric acid buffer followed by stripping of residual bound CFH at pH 2.0. Elution at pH 3.5 and pH 2.0 was calculated by UV 280 nm absorption.

T1 sequence (P08603 19-1231 limits assumed): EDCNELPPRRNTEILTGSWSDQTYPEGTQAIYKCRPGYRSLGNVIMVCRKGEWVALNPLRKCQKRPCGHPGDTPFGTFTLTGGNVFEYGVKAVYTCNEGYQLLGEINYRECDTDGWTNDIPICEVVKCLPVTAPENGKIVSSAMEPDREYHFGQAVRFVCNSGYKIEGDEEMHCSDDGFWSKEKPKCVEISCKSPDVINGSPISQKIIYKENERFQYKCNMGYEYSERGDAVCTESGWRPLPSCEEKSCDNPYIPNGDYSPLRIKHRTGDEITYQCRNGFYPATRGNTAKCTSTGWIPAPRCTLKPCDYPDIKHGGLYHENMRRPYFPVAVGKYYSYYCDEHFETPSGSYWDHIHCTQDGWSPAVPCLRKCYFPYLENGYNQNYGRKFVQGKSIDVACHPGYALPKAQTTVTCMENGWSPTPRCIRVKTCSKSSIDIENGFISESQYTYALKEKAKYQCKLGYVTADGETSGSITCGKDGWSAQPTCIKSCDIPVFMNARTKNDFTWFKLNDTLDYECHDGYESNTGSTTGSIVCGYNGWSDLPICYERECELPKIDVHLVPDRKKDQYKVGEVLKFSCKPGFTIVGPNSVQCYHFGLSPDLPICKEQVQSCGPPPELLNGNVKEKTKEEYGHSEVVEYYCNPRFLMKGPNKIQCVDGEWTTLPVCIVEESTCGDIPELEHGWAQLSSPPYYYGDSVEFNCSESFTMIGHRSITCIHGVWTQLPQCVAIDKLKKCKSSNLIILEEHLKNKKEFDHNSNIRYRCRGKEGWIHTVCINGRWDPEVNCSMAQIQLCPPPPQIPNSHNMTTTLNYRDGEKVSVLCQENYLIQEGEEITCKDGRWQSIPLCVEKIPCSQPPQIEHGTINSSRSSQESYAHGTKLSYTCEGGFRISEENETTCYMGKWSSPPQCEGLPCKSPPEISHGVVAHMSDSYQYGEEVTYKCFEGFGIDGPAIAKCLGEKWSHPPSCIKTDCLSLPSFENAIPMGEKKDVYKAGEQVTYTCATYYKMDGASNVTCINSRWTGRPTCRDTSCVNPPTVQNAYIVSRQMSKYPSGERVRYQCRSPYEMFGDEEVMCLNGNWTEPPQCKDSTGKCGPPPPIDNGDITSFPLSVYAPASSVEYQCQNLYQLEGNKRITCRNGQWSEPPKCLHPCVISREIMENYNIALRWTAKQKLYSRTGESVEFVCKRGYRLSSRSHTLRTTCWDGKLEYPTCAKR

B1: CFH binding protein of SEQ ID NO: 5 (CID 209447) (designed binder)
chain: NAAEADDAQVSAAMEIIMLPNLTLEQAHSFIESLYRDPSVSKEVLGEAQKLNDSQAPK
notes: Coupled to Praesto Epoxy 85 resin
As to B1, the “Step Yield of CFH at pH 3.5 (percentage elution)” value was found to be 91%.

B2: CFH binding protein of SEQ ID NO: 20 (CID 209864) (designed binder)
chain: IAAKFDEAQQAAFYEILHLPNLTELQRNHFIQTLRDDPSVSLWVLGLAQLLNDSQAPKIAAKFDEAQQHAFYTILHLENLTEEQRNAFIQSLRDDPSVSLEVLGEAIKLNISQAPK
notes: as for B1
As to B2, the “Step Yield of CFH at pH 3.5 (percentage elution)” value came out at 96%.
